How the values were obtained:
[1] = molecular target: type II collagen purified from bovine nasal septum (bovine) (UniProt P02459); experiment: single-molecule force spectroscopy (AFM); Cn tips (NHS chemistry) on living Cna^(+) S. aureus Phillips bacteria trapped in porous membranes; PBS, 20°C; contact time 100 ms, 250 pN, 1,000 nm s^-1; Cna^(−) cells and 9G7 MAb (10 µg/ml) as controls
[2] = molecular target: type II collagen purified from bovine nasal septum (bovine) (UniProt P02459); experiment: single-cell force spectroscopy (AFM); a single living Cna^(+) S. aureus Phillips bacterium on a colloidal probe cantilever against a Cn substrate (NHS chemistry); PBS, 20°C; contact time 100 ms, 250 pN, 1,000 nm s^-1; Cna^(−) cells as control
[3] = molecular target: T1, type II collagen purified from bovine nasal septum (bovine, UniProt P02459 182-1241); experiment: single-molecule force spectroscopy (AFM); recombinant CNA fragment on the tip at low density by a PEG-benzaldehyde linker, Cn on the substrate by NHS chemistry; PBS, 20°C; contact time 250 ms, maximum applied force 250 pN, approach and retraction speeds 1,000 nm s^-1 (retraction speed varied for the loading-rate plot and koff); 8 tips and substrates; conditions: both partners purified
T1 construct: Collagen type II, bovine, purified from nasal septum; collagen alpha-1(II) chain; Attached to gold-coated tips or substrates by NHS/EDC chemistry, or coated on microtiter wells; also called Cn; type II Cn; source: purified from bovine nasal septum (as described by Strawich and Nimni)
T1 sequence (P02459 182-1241): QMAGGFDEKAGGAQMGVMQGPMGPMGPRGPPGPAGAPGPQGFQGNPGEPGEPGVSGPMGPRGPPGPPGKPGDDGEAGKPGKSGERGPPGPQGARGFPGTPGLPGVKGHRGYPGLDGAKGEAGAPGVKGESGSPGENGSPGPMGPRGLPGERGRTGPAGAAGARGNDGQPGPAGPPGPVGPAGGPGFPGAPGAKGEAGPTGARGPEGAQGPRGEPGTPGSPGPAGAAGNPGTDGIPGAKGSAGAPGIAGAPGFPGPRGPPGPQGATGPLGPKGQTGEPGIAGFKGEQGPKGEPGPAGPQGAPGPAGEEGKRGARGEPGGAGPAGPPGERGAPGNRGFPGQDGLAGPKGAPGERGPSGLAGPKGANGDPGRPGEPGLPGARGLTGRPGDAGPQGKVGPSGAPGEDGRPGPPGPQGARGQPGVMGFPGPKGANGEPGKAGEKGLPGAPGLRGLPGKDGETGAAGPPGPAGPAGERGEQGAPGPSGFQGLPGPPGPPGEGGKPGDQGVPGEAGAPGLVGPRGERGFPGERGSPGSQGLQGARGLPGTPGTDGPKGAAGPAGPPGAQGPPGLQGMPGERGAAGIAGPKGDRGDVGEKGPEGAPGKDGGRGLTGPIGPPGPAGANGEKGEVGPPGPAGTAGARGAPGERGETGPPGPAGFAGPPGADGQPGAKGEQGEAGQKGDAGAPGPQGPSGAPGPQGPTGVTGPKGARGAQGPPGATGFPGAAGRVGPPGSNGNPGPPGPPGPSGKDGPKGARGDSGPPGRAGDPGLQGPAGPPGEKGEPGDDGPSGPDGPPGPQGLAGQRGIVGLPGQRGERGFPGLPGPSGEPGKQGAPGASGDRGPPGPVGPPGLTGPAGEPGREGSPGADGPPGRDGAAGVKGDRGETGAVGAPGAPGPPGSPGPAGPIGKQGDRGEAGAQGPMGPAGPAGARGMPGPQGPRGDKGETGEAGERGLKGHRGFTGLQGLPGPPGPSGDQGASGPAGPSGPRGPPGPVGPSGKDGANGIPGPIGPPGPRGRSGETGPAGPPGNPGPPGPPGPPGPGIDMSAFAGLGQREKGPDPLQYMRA

[4] = molecular target: T1, type II collagen purified from bovine …; experiment: single-molecule force spectroscopy (AFM); inverse configuration: Cn on the tip and CNA_(31–344) on the substrate, both by NHS chemistry; PBS, 20°C; contact time 250 ms, 250 pN, 1,000 nm s^-1 (retraction speed varied for koff); 6 tips and substrates; conditions: both partners purified

Chain of type II collagen purified from bovine nasal septum (bovine) (P02459 182-1241): as above

full-length collagen-binding protein Cna expressed on living Staphylococcus aureus strain Phillips cells (natural protein)
strong adhesion forces (single molecule) [1]: 1170 pN | weak adhesion forces (single molecule) [1]: 239 pN | adhesion force (single cell) [2]: 100 to 5000 pN | fraction of force curves with adhesion force peaks [2]: 54 to 89% | strong adhesion force (single cell), cell no. 1 [2]: 2120 pN | strong adhesion force (single cell), cell no. 2 [2]: 3380 pN | strong adhesion force (single cell), cell no. 3 [2]: 2500 pN | strong adhesion force (single cell), cell no. 4 [2]: 3250 pN | strong adhesion force (single cell), cell no. 5 [2]: 1890 pN | strong adhesion force (single cell), cell no. 6 [2]: 3620 pN | strong adhesion forces (single cell) [2]: 3160 pN | weak adhesion forces (single cell) [2]: 670 pN

B1: recombinant CNA_(31–344), N1N2 subdomains of the A region of the Staphylococcus aureus collagen-binding protein Cna (domain or fragment)
chain: RDISSTNVTDLTVSPSKIEDGGKTTVKMTFDDKNGKIQNGDMIKVAWPTSGTVKIEGYSKTVPLTVKGEQVGQAVITPDGATITFNDKVEKLSDVSGFAEFEVQGRNLTQTNTSDDKVATITSGNKSTNVTVHKSEAGTSSVFYYKTGDMLPEDTTHVRWFLNINNEKSYVSKDITIKDQIQGGQQLDLSTLNINVTGTHSNYYSGQSAITDFEKAFPGSKITVDNTKNTIDVTIPQGYGSYNSFSINYKTKITNEQQKEFVNNSQAWYQEHGKEEVNGKSFNHTVHNINANAGIEGTVKGELKVLKQDKDTKA
notes: Collagen adhesin Cna of S. aureus FDA 574, residues 31 to 344 (predicted N1N2 subdomains of the A region); In the assay it was coupled covalently to the AFM tip (PEG-benzaldehyde linker) or to the substrate (NHS chemistry); source: recombinant, cloned into plasmid pQE30, purified
koff [3]: 0.0002 s⁻¹ | koff [4]: 0.0005 s⁻¹

— publication PMC5080380, “Mechanical Strength and Inhibition of the Staphylococcus aureus Collagen-Binding Protein Cna” (mBio, 2016)
